{"source": "paper PMC9406036", "about": "“The Catalytic Domain Mediates Homomultimerization of MT1-MMP and the Prodomain Interferes with MT1-MMP Oligomeric Complex Assembly” (Biomolecules, 2022)", "molecular_target": "the molecule itself", "experiment": "SEC; preparative Sephacryl S-200 gel filtration (120 mL), IMAC-purified protein at about 1 mg/mL, 1 mL injected after a 0.22 µm filter, 50 mM Tris pH 7.4, 150 mM NaCl, 5 mM CaCl2, 10 µM CT1746; sizes from a calibration curve; fractions checked by SDS-PAGE", "note": "“And” between values parts separate entries of the source, which are not always exact repeats. Equal entries are not always repeated."}
{"protein": "WT-Cat-L (catalytic domain with the linker of MT1-MMP), secreted without the prodomain (domain or fragment, human MT1-MMP (MMP-14) catalytic domain with the linker; Found as monomer, dimer and higher multimers on gel filtration; also called Cat-L construct; source: Drosophila S2 insect cells, purified (IMAC, Sephacryl S-200)) not shown", "values": [{"measurement": "stoichiometry N", "value": "2 and > 3"}]}
